Experimental data published in patent US20240010735A1 (EISAI R AND D MANAGEMENT, published 2024).

B1: humanized anti-EphA4 monoclonal antibody (antibody B) (antibody, human IgG2, V domains shown)
VH: QVQLVESGGGVVQPGRSLRLSCAVSGFSLTRFGVHWVRQAPGKGLEWVAVIWRGGSTDYNAAFMSRLTISKDNSKNTVYLQMNSLRAEDTAVYYCAKESLFGVYYDYGYYSMDYWGQGTTVTVSS
VL: DIQMTQSPSSLSASVGDRVTITCRASQEISGYLSWLQQKPGKAPKRLIYAASTLDSGVPSRFSGSRSGTEYTLTISSLQPEDFATYYCLQYASYPLTFGGGTKVEIKR
notes: expressed in Expi293F cells; also called humanized antibody of antibody A; HK2-42 / L1-8
B2: mouse anti-EphA4 monoclonal antibody (antibody A) (antibody, mouse IgG1, kappa, V domains shown)
VH: QVQLKQSGPSLVQPSQSLSITCTVSGFSLTRYGVHWVRQSPGKGLEWLGVIWRGGSTDYNAAFMSRLSITKDNSKSQVFFKMNSLQADDTAIYYCAKESLFGVYYDYGYYSMDYWGQGTSVTVSS
VL: DIQMTQSPSSLSASLGERVSLTCRASQEISGYLSWLQQKPDGTIKRLIYAASTLDSGVPKRFSGSRSGSDYSLTISSLESEDFADYYCLQYASYPLTFGAGTKLELKR
notes: purified from hybridoma supernatant

Legend:
[1] = target: T1, human EphA4 fibronectin type III domain 2-MBP-His protein (human, UniProt P54764 436-547); experiment: ELISA; domain-MBP-His protein captured by anti-6-His antibody
T1 construct: also called fibronectin type III domain 2 (FN2); not shown: histidine tag
Description: (§1) Rabbit anti-6-His antibodies (Bethyl Laboratories) were coated onto the wells of a 96-well plate (Nunc). After incubating at 4° C. overnight, the wells were blocked at room temperature for 1 hour by 1% Block Ace (DS Pharma Biomedical). After washing twice with 0.02% Tween 20/PBS (Nacalai Tesque), human EphA4 extracellular region-MBP-His protein, human EphA4 ligand binding domain-MBP-His protein, human EphA4 fibronectin type III domain 1-NBP-His protein, and human EphA4 fibronectin type III domain 2-MBP-His protein (final concentration 10 nM) were seeded into the wells, and incubated at room temperature for 1 hour. After washing 3 times, antibody A (final concentration 10 nM) was supplemented to the wells, and incubated at room temperature for 1 hour. Horseradish peroxidase-labeled goat anti-mouse IgG Fcγ fragment antibody (Jackson ImmunoResearch Laboratories) was added, and incubated at room temperature for 1 hour. After washing 5 times, TMB solution (KPL) was added to the wells, and upon confirmation of modest coloring, an equal amount of quenching solution (2 N H₂SO₄, Wako Pure Chemicals) was added to the wells, and absorbance at 450 nm and 650 nm were read by a microplate reader (PerkinElmer).
as §1, with “domain 1-MBP-His” for “domain 1-NBP-His”, “antibody B” for “antibody A”, “peroxidase-labeled rabbit anti-human” for “peroxidase-labeled goat anti-mouse”, “IgG Fey” for “IgG Fcγ”, “hour.” for “hour. After washing 5 times, TMB solution (KPL) was added to the wells, and upon confirmation of modest coloring, an equal amount of quenching solution (2 N H₂SO₄, Wako Pure Chemicals) was added to the wells, and absorbance at 450 nm and 650 nm were read by a microplate reader (PerkinElmer).”

[2] = target: T2, human EphA4 fibronectin type III domain 1-MBP-His protein (human, UniProt P54764 205-440); experiment: as above
T2 construct: also called fibronectin type III domain 1 (FN1); not shown: histidine tag
Description: as §1
as §1, with “domain 1-MBP-His” for “domain 1-NBP-His”, “antibody B” for “antibody A”, “peroxidase-labeled rabbit anti-human” for “peroxidase-labeled goat anti-mouse”, “IgG Fey” for “IgG Fcγ”, “hour.” for “hour. After washing 5 times, TMB solution (KPL) was added to the wells, and upon confirmation of modest coloring, an equal amount of quenching solution (2 N H₂SO₄, Wako Pure Chemicals) was added to the wells, and absorbance at 450 nm and 650 nm were read by a microplate reader (PerkinElmer).”

[3] = target: T3, human EphA4 extracellular region-SEAP-His protein (human, UniProt P54764 20-547); experiment: SPR, Biacore T200; EphA4 extracellular region-SEAP-His captured on anti-His chip, antibody as analyte, 1:1 model
T3 construct: also called human EphA4 extracellular region-SEAP-His 10; not shown: secretory alkaline phosphatase (SEAP); histidine tag
Description: The binding affinity of antibody A against mouse and human EphA4 was determined by surface plasmon resonance (SPR method) employing Biacore T200 (GE Healthcare). First, anti-His antibodies (GE Healthcare, 28-9950-56) were fixed to a sensor chip CM5. Fixation was carried out by amine coupling method employing N-hydroxysuccinimide (NHS) and N-ethyl-N′-(3-dimethylaminopropyl) carbodiimide hydrochloride salt (EDC), and ethanolamine was employed for blocking (the sensor chip and reagents for fixation are all from GE Healthcare). This was diluted with the fixation buffer (10 mM sodium acetate, pH 4.5) to 3.5 μg/mL, and fixed onto the sensor chip according to the protocol accompanying Biacore T200. Mouse or human EphA4 extracellular region-SEAP-His 10 was diluted with the running buffer HBS-EP (GE Healthcare, BR-1001-88), and the solution was sent and captured onto the flow cell for 120 seconds (about 10 RU of captured amount). Subsequently, antibody A serially diluted to a range of 100, 50, 25, 12.5, 6.3, 3.2, 1.6, 0 nM with HBS-EP was added to the sensor chip for 120 seconds, and the binding reaction curve at the time of addition (binding phase, 120 seconds) and after completing the addition (dissociation phase, 600 seconds) was sequentially observed. Upon completion of each observation, 4 M MgCl₂ (60 seconds, Wako Pure Chemicals) was added to regenerate the sensor chip. Fitting analysis by 1:1 binding model employing the software accompanying the system, BIA evaluation software, was carried out against the binding reaction curve obtained, and the binding affinity (KD=kd/ka) against mouse and human EphA4 was calculated.
The binding affinity of antibody B obtained in Example 1 against human EphA4 was determined by surface plasmon resonance (SPR method) employing Biacore T200 (GE Healthcare). First, anti-His antibodies (GE Healthcare, 28-9950-56) were fixed to a sensor chip CMS. […]

[4] = target: T3, human EphA4 extracellular …; experiment: SPR (Biacore T200): human EphA4 extracellular region-SEAP-His captured on anti-His antibody, antibody B 1.6-100 nM as analyte, 1:1 fit
Description: The binding affinity of antibody B obtained in Example 1 against human EphA4 was determined by surface plasmon resonance (SPR method) employing Biacore T200 (GE Healthcare). First, anti-His antibodies (GE Healthcare, 28-9950-56) were fixed to a sensor chip CMS. Fixation was carried out by amine coupling method employing N-hydroxysuccinimide (NHS) and N-ethyl-N′-(3-dimethylaminopropyl) carbodiimide hydrochloride salt (EDC), and ethanolamine was employed for blocking (the sensor chip and reagents for fixation are all from GE Healthcare). This was diluted with the fixation buffer (10 mM sodium acetate, pH 4.5) to 3.5 μg/mL, and fixed onto the sensor chip according to the protocol accompanying Biacore T200. Human EphA4 extracellular region-SEAP-His 10 was diluted with the running buffer HBS-EP (GE Healthcare, BR-1001-88), and the solution was sent and captured onto the flow cell for 120 seconds (about 10 RU of captured amount). […] Fitting analysis by 1:1 binding model employing the software accompanying the system, BIA evaluation software, was carried out against the binding reaction curve obtained, and the affinity (KD=kd/ka) against human EphA4 was calculated.

T3 sequence (P54764 20-547): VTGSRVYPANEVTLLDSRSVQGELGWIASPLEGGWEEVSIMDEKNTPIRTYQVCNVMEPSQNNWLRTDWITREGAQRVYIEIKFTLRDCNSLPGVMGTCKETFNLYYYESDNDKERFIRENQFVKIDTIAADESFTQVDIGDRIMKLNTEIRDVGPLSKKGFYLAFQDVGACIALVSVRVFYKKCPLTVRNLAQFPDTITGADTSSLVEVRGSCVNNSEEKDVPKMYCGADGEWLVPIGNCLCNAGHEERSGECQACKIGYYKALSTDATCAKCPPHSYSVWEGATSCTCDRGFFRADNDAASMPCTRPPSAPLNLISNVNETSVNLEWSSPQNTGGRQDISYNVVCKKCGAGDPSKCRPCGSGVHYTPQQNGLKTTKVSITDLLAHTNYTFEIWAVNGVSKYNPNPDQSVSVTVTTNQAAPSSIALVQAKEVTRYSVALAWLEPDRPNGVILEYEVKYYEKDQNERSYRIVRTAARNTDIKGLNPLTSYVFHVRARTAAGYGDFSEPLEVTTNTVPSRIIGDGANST
T2 sequence (P54764 205-440 limits assumed): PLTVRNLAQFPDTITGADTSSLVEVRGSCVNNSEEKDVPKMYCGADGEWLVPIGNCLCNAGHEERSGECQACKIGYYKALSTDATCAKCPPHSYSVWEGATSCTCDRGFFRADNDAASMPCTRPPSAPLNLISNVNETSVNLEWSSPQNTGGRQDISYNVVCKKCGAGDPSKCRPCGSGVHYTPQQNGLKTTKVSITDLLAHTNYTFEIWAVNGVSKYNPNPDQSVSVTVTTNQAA
T1 sequence (P54764 436-547 limits assumed): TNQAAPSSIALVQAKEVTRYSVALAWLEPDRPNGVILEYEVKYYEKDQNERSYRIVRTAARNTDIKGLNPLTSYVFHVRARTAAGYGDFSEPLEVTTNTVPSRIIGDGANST

Binder	binding result [1]	binding result [2]	Kd [3] [nM]	koff [4] [s⁻¹]	kon [4] [M⁻¹ s⁻¹]
B1	no binding (tested: 10 nM)	no binding (tested: 10 nM)	1.34	0.000494	370000
B2	no binding (tested: 10 nM)	no binding (tested: 10 nM)	1.19		
